From patent publication US7691590B2, “Reducing myelin-mediated inhibition of axon regeneration” (Children's Medical Center Corporation, priority 2001, dated 2010) come the findings set out here.

Several values for one entry are separate records, joined by “and”; a condition that tells them apart may be missing. Equal entries are not always repeated.

Data set [1] concerns growth cones of E13 chick DRG neurons. The data set is described as follows: Growth cone collapse assay with E13 chick DRG explants. In kind it is cell-based. As to conditions: for growth cone collapsing activity after PI-PLC treatment of the neurons: PI-PLC pre-incubation; for EC50: E13 chick DRG growth cones, read-out: effective concentration for half-maximal response (EC50), growth cone collapse. The source says:
OMgp is a Physiological Nogo Receptor Ligand and Inhibitor of Neurite Outgrowth. To examine whether any GPI-linked proteins in CNS myelin may act as inhibitors of neurite outgrowth, we treated purified bovine white matter myelin with phosphatidylinositol-specific phospholipase C (PI-PLC) and examined the released proteins for their ability to alter growth cone morphology in a growth cone collapse assay using embryonic day 13 chick dorsal root ganglia (E13 DRG)^6,9,10. […] Since the size of this band was similar to that of a previously identified CNS myelin protein OMgp^11,12, we used antibodies specific for OMgp to detect enrichment of cleaved OMgp in the PI-PLC supernatants by Western blot. […] Next, we examined whether purified recombinant OMgp protein was able to act as an inhibitor of neurite outgrowth in two well-established in vitro assays, the growth cone collapse^6,9,13 and the neurite outgrowth assays^3-7,9.
Growth Cone Collapse and Neurite Outgrowth Assays. Chick E13 DRG and E7 retina were isolated and cultured as described previously^9,10. DRG explants cultured overnight were used for growth cone collapse assays. To assess the effects of PI-PLC treatment, cultures were pre-incubated with 2 U/ml PI-PLC for 30 min prior to treatment with individual test proteins for an additional 30 min. To express NgR in E7 retinal ganglion neurons, we infected the explants with recombinant HSV for 24 hr. After incubation with each test protein for 30 min, retinal explants were fixed in 4% paraformaldehyde and 15% sucrose. Infection of HSV-LacZ was detected by a standard b-galatosidase staining protocol^20. FLAG-NgR expression was detected by incubating paraformaldehyde-fixed cultures with M2 anti-FLAG antibody (Sigma). Bound antibody was detected by incubation with AP-conjugated […] IgG second antibody and reaction with NBT and BCIP (Vector labs). Growth cone collapse was quantified only in those positively stained for b-galatosidase or immunoreactive for the FLAG epitope.

The subject of data set [2] is chick E7 retinal ganglion neurons (RGN) expressing human NgR. Put plainly: Growth cone collapse in E7 retinal ganglion neurons expressing FLAG-NgR (HSV infection). In kind it is cell-based. The following applies: E7 RGN infected with HSV FLAG-NgR. The source says:
To assess whether NgR is capable of mediating OMgp-induced inhibitory activity on neurite outgrowth, we next took a gain-of-function approach to examine whether expression of NgR was able to confer OMgp-responsiveness to otherwise insensitive neurons. It has been shown previously that chick E7 retinal ganglion neurons (RGN) are insensitive to Nogo-66, but that introduction of exogenous NgR in these neurons rendered their growth cones to be responsive to Nogo-66^9. Using the same strategy, we made a recombinant herpes simplex virus (HSV) that drives expression of a FLAG-tagged full-length human NgR (FLAG-NgR) in infected neurons. Upon infection, 80% of the E7 RGNs expressed the FLAG-NgR protein as assessed by immunocytochemistry with an anti-FLAG antibody. […] Furthermore, the growth cones of NgR-expressing axons also become collapsible by OMgp.
Growth Cone Collapse and Neurite Outgrowth Assays. […] Infection of HSV-LacZ was detected by a standard b-galatosidase staining protocol^20. FLAG-NgR expression was detected by incubating paraformaldehyde-fixed cultures with M2 anti-FLAG antibody (Sigma). Bound antibody was detected by incubation with AP-conjugated […] IgG second antibody and reaction with NBT and BCIP (Vector labs). Growth cone collapse was quantified only in those positively stained for b-galatosidase or immunoreactive for the FLAG epitope.

The target of data set [3] is T1, GST-NgR (extracellular domain of NgR) (Homo sapiens, UniProt Q9BZR6).
T1 construct: a GST fusion protein containing the entire extracellular domain of NgR (GST-NgR); made in house; OM-his made in COS-7 cells
T1 sequence (Q9BZR6 27-447 limits assumed): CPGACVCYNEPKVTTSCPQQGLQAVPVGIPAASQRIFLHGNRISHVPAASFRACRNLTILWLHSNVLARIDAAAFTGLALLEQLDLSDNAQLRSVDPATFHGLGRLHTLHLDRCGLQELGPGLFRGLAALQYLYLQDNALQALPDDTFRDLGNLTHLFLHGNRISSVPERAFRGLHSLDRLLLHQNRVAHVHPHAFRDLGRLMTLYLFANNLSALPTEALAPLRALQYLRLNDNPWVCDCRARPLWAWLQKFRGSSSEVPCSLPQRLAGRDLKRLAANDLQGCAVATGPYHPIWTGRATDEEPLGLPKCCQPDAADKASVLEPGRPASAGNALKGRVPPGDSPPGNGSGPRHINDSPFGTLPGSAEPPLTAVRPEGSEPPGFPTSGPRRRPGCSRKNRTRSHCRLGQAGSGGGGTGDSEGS
The data set is described as follows: Co-precipitation with GST-NgR on glutathione-Agarose beads. As to conditions: for competition for binding to NgR: cell surface binding and co-precipitation assay. In kind it is binding. How it is done: To investigate the mechanisms by which OMgp inhibits neurite outgrowth, we used an expression cloning strategy^9,13,16 to identify cell surface OMgp-binding proteins. […] From pools of an adult human brain cDNA expression library, we isolated two cDNAs that encoded OMgp-binding proteins. […] We then established a CHO cell line stably expressing the NgR and determined the binding affinity of expressed NgR for AP-OM as 5 nM, similar to what had been determined for Nogo-66 (7 nM, ref. 9). […] We next performed co-precipitation experiments by incubating GST or a GST fusion protein containing the entire extracellular domain of NgR (GST-NgR) with OM-his alone or in the presence of AP or AP-66 protein. […] We next determined which domain(s) of OMgp was responsible for binding to NgR. Like NgR, OMgp is also a GPI-linked protein containing a leucine-rich repeat (LRR) domain. […] In addition, the C-terminal domain with serine-threonine repeats (AP-S/T) alone was also able to bind, though less strongly, to NgR expressing cells.
In co-precipitation experiments, 2 mg GST or GST-NgR were first immobilized to glutathione-Agarose beads and the beads were further incubated with or without 1 mg OM-his in the presence of 2 mg of AP or AP-66 at 4° C. for 2 hr. After extensive washing, the bound proteins were resolved with SDS-PAGE and detected by Western blotting.

Data set [4] deals with cerebellar granule neurons (CGN). Put plainly: Neurite outgrowth assay with cerebellar granule neurons. The class given is cell-based. The following applies: P7-9 rat CGN. An excerpt: To deplete OMgp, myelin was first solublized with 1% octylglucoside and the resultant extract was passed twice through columns with PNA-Agarose (Vector Laboratories) or control Agarose beads as described previously^12. The OMgp-enriched fraction was obtained by eluting the PNA-Agarose column with buffer containing 0.5 M D-galactose. As a significant portion of OMgp co-fractionated with Nogo-A in anion exchange columns^12, we enriched MAG or Nogo-A from myelin by applying the flow-through fractions from the PNA-Agarose columns onto a Q-Sepharose (Sigma) column^15. The column was then eluted stepwise with equal amount of buffers containing 0.15 M (MAG-enriched), 0.45 M (Nogo-A enriched), or 1.0 M NaCl^15. Aliquots of individual fractions were tested for their inhibitory activity in the neurite outgrowth assay as described previously^15,16,21.
Neurite outgrowth assays were performed as described previously^15,21. Briefly, P7-9 rat CGNs were dissected and then plated at a density of 1×10^5 cells per well. The cells were cultured for 24 hr prior to fixation with 4% paraformaldehyde and staining with a neuronal specific anti-b-tubulin antibody (TuJ-1, Covance). Quantification of neurite length and statistical analysis were performed as described previously^22.

B1: OMgp: oligodendrocyte-myelin glycoprotein, GPI-anchored CNS myelin protein (protein, UniProt P23515 25-417, looked up)
Oligodendrocyte-myelin …: ICPLQCICTERHRHVDCSGRNLSTLPSGLQENIIHLNLSYNHFTDLHNQLTQYTNLRTLDISNNRLESLPAHLPRSLWNMSAANNNIKLLDKSDTAYQWNLKYLDVSKNMLEKVVLIKNTLRSLEVLNLSSNKLWTVPTNMPSKLHIVDLSNNSLTQILPGTLINLTNLTHLYLHNNKFTFIPDQSFDQLFQLQEITLYNNRWSCDHKQNITYLLKWMMETKAHVIGTPCSTQISSLKEHNMYPTPSGFTSSLFTVSGMQTVDTINSLSVVTQPKVTKIPKQYRTKETTFGATLSKDTTFTSTDKAFVPYPEDTSTETINSHEAAAATLTIHLQDGMVTNTSLTSSTKSSPTPMTLSITSGMPNNFSEMPQQSTTLNLWREETTTNVKTPLPS
With B1, the “growth cone collapsing activity after PI-PLC treatment of the neurons” value in data set [1] (E13 chick DRG) is on record as “abolished”. In addition, the “growth cone collapse response in NgR-expressing neurons” value in data set [2] was “collapsible”.

B2: Semaphorin 3A: control growth cone collapsing protein acting through neuropilin-1 and plexin receptors (protein, UniProt Q14563 21-771, looked up)
Semaphorin-3A: NYQNGKNNVPRLKLSYKEMLESNNVITFNGLANSSSYHTFLLDEERSRLYVGAKDHIFSFDLVNIKDFQKIVWPVSYTRRDECKWAGKDILKECANFIKVLKAYNQTHLYACGTGAFHPICTYIEIGHHPEDNIFKLENSHFENGRGKSPYDPKLLTASLLIDGELYSGTAADFMGRDFAIFRTLGHHHPIRTEQHDSRWLNDPKFISAHLISESDNPEDDKVYFFFRENAIDGEHSGKATHARIGQICKNDFGGHRSLVNKWTTFLKARLICSVPGPNGIDTHFDELQDVFLMNFKDPKNPVVYGVFTTSSNIFKGSAVCMYSMSDVRRVFLGPYAHRDGPNYQWVPYQGRVPYPRPGTCPSKTFGGFDSTKDLPDDVITFARSHPAMYNPVFPMNNRPIVIKTDVNYQFTQIVVDRVDAEDGQYDVMFIGTDVGTVLKVVSIPKETWYDLEEVLLEEMTVFREPTAISAMELSTKQQQLYIGSTAGVAQLPLHRCDIYGKACAECCLARDPYCAWDGSACSRYFPTAKRRTRRQDIRNGDPLTHCSDLHHDNHHGHSPEERIIYGVENSSTFLECSPKSQRALVYWQFQRRNEERKEEIRVDDHIIRTDQGLLLRSLQQKDSGNYLCHAVEHGFIQTLLKVTLEVIDTEHLEELLHKDDDGDGSKTKEMSNSMTPSQKVWYRDFMQLINHPNLNTMDEFCEQVWKRDRKQRRQRPGHTPGNSNKWKHLQENKKGRNRRTHEFERAPRSV
B2: in data set [1] (E13 chick DRG), the “growth cone collapsing activity after PI-PLC treatment of the neurons” value is “not affected”.

B3: AP-66: alkaline phosphatase fusion protein containing the 66 amino acid extracellular domain of Nogo-A (protein)
chain: RIYKGVIQAIQKSDEGHPFRAYLESEVAISEELVQKYSNSALGHVNCTIKELRRLFLVDDLVDSLK
modifications: also: fused to alkaline phosphatase
notes: alkaline phosphatase fusion protein containing the 66 amino acid extracellular domain of Nogo-A
Regarding B3, the EC50 in data set [1] was 2.3 nM. In addition, in data set [3], the “competition for binding to NgR” value was “competed for binding to NgR”.

B4: OM-his: purified recombinant polyhistidine-tagged mouse OMgp protein (amino acids 23-392) expressed in COS-7 cells (protein)
chain: LCICPLQCTCTERHRHVDCSGRNLTTLPPGLQENIIHLNLSYNHFTDLHNQLTPYTNLRTLDISNNRLESLPAQLPRSLWNMSAANNNIKLLDKSDTAYQWNLKYLDVSKNMLEKVVLIKNTLRSLEVLNLSSNKLWTVPTNMPSKLHIVDLSNNSLTQILPGTLINLTNLTHLYLHNNKFTFIPEQSFDQLLQLQEITLHNNRWSCDHKQNITYLLKWVMETKAHVIGTPCSKQVSSLKEQSMYPTPPGFTSSLFTMSEMQTVDTINSLSMVTQPKVTKTPKQYRGKETTFGVTLSKDTTFSSTDRAVVAYPEDTPTEMTNSHEAAAATLTIHLQDGMSSNASLTSATKSPPSPVTLSIARGMPNNFSE
modifications: left off: small tags and cut ends
notes: purified recombinant polyhistidine-tagged mouse OMgp protein (amino acids 23-392) expressed in COS-7 cells
As for B4, the “growth cone collapsing activity” value in data set [1] (E13 chick DRG) is recorded as “induced the collapse of growth cones”. Besides, the EC50 in data set [1] is ~1.5 nM and 1.5 nM. Moreover, the “inhibition of neurite outgrowth” value in data set [4] is “inhibited neurite outgrowth”. The “competition for binding to NgR” value in data set [3] is on record as “competed for binding to NgR”. Further, the “direct binding to GST-NgR” value in data set [3] (co-precipitation, control GST did not bind) is given as “bound”.
